Columns and labels:
[1] = target: N2 NA of the seasonal influenza virus strain A/Hong Kong/4801/2014 (H3N2) (influenza A virus A/Hong Kong/4801/2014 (H3N2))
[2] = target: N9 NA from the H7N9 epidemic isolate A/Hunan/02650/2016 (influenza A virus A/Hunan/02650/2016 (H7N9)); assay: crystal structure
[3] = target: N2 NA of the 1957 H2N2 pandemic isolate A/Japan/305/1957 (influenza A virus A/Japan/305/1957 (H2N2)); assay: crystal structure

Substance: antigen-binding fragment (Fab) of 1G01
- IC50 of inhibition of NA activity of H3N2 A/Hong Kong/4801/2014 in ELLA (Fab) [1]: 7.62 nM

Substance: N9 NA from the H7N9 epidemic isolate A/Hunan/02650/2016 (enzyme)
- stoichiometry N [2]: 4

Substance: N2 NA of the 1957 H2N2 pandemic isolate A/Japan/305/1957 (enzyme)
- stoichiometry N [3]: 4

Source: article PMC7105897
